Measurements published in article PMC9723642.

Key:
Assay in all cases: EMSA
Conditions in all cases: EMSA: 10 mM Tris-HCl pH 7.5, 1 mM EDTA, 100 mM KCl, 0.1 mM DTT, 5% glycerol, 0.01 mg/mL BSA, 20 nM RNA, room temperature, 1 h; pull-down: RNA folded in 100 mM …
[1] = tested on: NCL* (PRMT1-methylated recombinant NCL) (Homo sapiens)
[2] = tested on: RGG peptide (Homo sapiens)
[3] = tested on: RGG* methylated peptide (Homo sapiens)
[4] = tested on: recombinant NCL (Homo sapiens)

Substance: EBNA1
- Kd [1]: 202 nM
- Kd [2]: 0.154 nM
- Kd [3]: 0.107 nM
- Kd [4]: 306 nM
